What was measured:
hPDGFRB = hPDGFRB (Homo sapiens, UniProt P09619); assay: Competition assays of PDGFRB VHHs on hPDGFRB; assay type: binding; conditions: for epitope group (mutual competition): VHHs from libraries 1 and 2, four main groups
Experimental: (§1) Biparatopic VHH constructs contain two VHH which bind to a different epitope, i.e. which are non-competitive binders. To identify (a) pair(s) of non-competitive binders, competition assays were performed. In the example shown, an Alexa fluor-conjugate of the high affine VHH 13F11 was used as the reporter VHH (13F11-A647, see example 10.2). In the assay, a non-saturating amount (10 nM) of 13F11-A647 was incubated with immobilized hIGF2R-ECD in the presence or absence of 250 nM unconjugated competitor VHH to allow competition to take place.
Similar as to in example 6.1, competition assays were performed to identify unique hPDGFRB- or rPDGFRB binders. Across 10 PDGFRB-binding VHHs obtained from libraries 1 and 2 (e.g. the VHH raised against hPDGFRB), four main groups were identified being first SP01P, SP02P, SP07P and SP13P, second SP05P, SP08P and SP10P, third SP12P and SP20P and finally SP14P. All VHH within each of the first three groups mutually competed.
To evaluate whether the obtained VHHs would qualify as building blocks for multivalent VHH constructs that bind hPDGFRB as well as rPDGFRB (e.g. ‘species cross-reactive’ VHH constructs), competition assays were performed using the most promising VHHs SP02 (raised against hPDGFRB) and SP26P (raised against rPDGFRB).

hIGF2R-ECD = target: T1, hIGF2R-ECD (Homo sapiens, UniProt P11717); assay: Competition assay with 13F11-A647 as reporter VHH on immobilized hIGF2R-ECD; assay type: binding; conditions: for competition with reporter VHH 13F11-A647: 10 nM 13F11-A647, 250 nM unconjugated competitor VHH; for less fluorescence intensity (decrease in binding of labelled 13F11): 10 nM labelled 13F11, 250 nM unlabelled competitor VHH
T1 construct: immobilized recombinant human extracellular domain of IGF2R (hIGF2R-ECD) was used
Experimental: With the term “compete” is meant that in a competition assay, such as for instance described in Example 6 of the present invention, the addition of a binding molecule induces a significant decrease in binding of a given VHH, i.e., the VHH to which the competing is determined. “Significant” in this respect is preferably a decrease of >5%, preferably >10% when 250 nM of a binding molecule is added to 10 nM of a fluorescence labelled VHH in an ELISA. […] The same test conditions and threshold apply to a binding molecule directed to PDGFRB when determining whether a binding molecule competes with a given VHH.
as §1

Chain of hPDGFRB (P09619 33-532 limits assumed): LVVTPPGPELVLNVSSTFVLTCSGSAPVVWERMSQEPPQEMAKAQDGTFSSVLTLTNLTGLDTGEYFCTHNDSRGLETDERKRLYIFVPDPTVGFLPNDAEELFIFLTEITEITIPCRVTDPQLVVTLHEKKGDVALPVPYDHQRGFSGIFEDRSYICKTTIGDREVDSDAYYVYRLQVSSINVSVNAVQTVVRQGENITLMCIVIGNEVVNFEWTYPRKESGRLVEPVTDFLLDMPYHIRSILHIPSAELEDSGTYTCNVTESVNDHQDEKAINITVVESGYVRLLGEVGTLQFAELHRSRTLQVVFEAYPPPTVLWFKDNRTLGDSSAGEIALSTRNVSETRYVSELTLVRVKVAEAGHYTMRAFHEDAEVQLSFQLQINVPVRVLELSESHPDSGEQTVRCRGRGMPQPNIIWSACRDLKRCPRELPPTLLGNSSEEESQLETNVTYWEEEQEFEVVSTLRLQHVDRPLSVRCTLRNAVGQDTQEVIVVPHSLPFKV

Molecule | epitope group (mutual competition) (hPDGFRB) | competition with reporter VHH 13F11-A647 (hIGF2R-ECD) | less fluorescence intensity (decrease in binding of labelled 13F11) (hIGF2R-ECD) | competition between SP02 and SP26P (hPDGFRB; IRDye800-conjugated SP26P as reporter)
SP10P: VHH single domain antibody targeting PDGFRB, SEQ ID NO: 49 (protein) VHH: EVQLVESGGGLVQAGGSLRLSCAASGRTFNGYAMGWFRQAPGKERDFVAAITWSYGYTHYAESVKGRFSISRDSANNMVYLEMNSLKPEDTAVYYCAADPKASRFRTLRRYDYWGQGTQVTVSS | second | – | – | –
13A8: VHH single domain antibody targeting IGF2R, SEQ ID NO: 257 (protein) VHH: EVQLVESGGGLVPAGGSLRLSCAASGRTFSNYAMGWFRQAPGKERKFVATISWSGGVTYYADSVKGRFTISRDNAKNTVYLLMNSLKPEDTAVYYCAAKRDSSSYDHRRYDYWGQGTQVTVSS | – | competed with 13F11 | substantially more decrease in fluorescence intensity | –
SP08P: VHH single domain antibody targeting PDGFRB, SEQ ID NO: 41 (protein) VHH: EVQLVESGGGLVQAGGSLRLSCAASGRTFNGYAMAWFRQAPGKERDFVASITWSYGYTYYADSAQGRFTISRDSAKNTVYLEMNSLKPEDTAVYYCAADPKASRFRILRQYAHWGQGTQVTVSS | second | – | – | –
SP07P: VHH single domain antibody targeting PDGFRB, SEQ ID NO: 33 (protein) VHH: EVQLVESGGGSVQTGGSLRLSCAASGRSFSTYAMAWFRQAPGKEREFVAAINRRATDTVYADSAKGRFIISRDNDKNTVYLQMDSLKTEDTAVYYCAAAKNAYDWRWDRLRDRDYWGQRGQGTQVTVSS | first | – | – | –
SP01P: VHH single domain antibody targeting PDGFRB, SEQ ID NO: 1 (protein) VHH: EVQLVESGGGLAQAGGSLRLSCVASGNIDSANGMAWYRQAPGKQRELVAHITSGTSYYVASVEGRFTISRANAKDTWYLQMNSLKPEDTGVYYCFPIGLSAHWSQGTQVTVSS | first | – | – | –
13C11: VHH single domain antibody targeting IGF2R, SEQ ID NO: 297 (protein) VHH: EVQLVESGGGLVQAGGSLRLSCAASGLTFSSYTMAWYRQAPGKEREVVAAISSGDSIYHEGSVQGRFIISRDNAKNTVYLQMNSLKAEDTAVYYCRANGPGTYWGQGTQVTVSS | – | competed with 13F11 | substantially more decrease in fluorescence intensity | –
13G10: VHH single domain antibody targeting IGF2R, SEQ ID NO: 305 (protein) VHH: EVQLVESGGGLVQAGGSLRLSCAASGLTFSSYTMAWYRQAPGKEREVVAAISSGDSIYHEDSVQGRFIISRDNAKNTVYLQMNSLKAEDTAVYYCRANGPGTYWGQGTQVTVSS | – | competed with 13F11 | substantially more decrease in fluorescence intensity | –
SP02P: VHH single domain antibody targeting PDGFRB, SEQ ID NO: 9 (protein) VHH: EVQLVESGGGLVQAGGSLRLSCAASESISSIEQMGWFRQAPGKQRALVAINTYGGRTVYTNSVEGRFTMSRDSAKNMVYLQMTSLEPEDTAVYYCYAQTTAWRGGVWGQGTQVTVSS | first | – | – | did not compete
SP14P: VHH single domain antibody targeting PDGFRB, SEQ ID NO: 81 (protein) VHH: EVQLVESGGGLVQAGDSLRLSCVVSGLTFSRYGMGWFRQATGKEREFVGGISVGSSGTMYPNSVKGRFTISRDNAKSTVYLQMNSLKPEDTAVYFCAAIDQGSFVQQRDYRYWGQGTQVTVSS | lone VHH | – | – | –
13E8: VHH single domain antibody targeting IGF2R, SEQ ID NO: 249 (protein) VHH: EVQLVESGGGLVQAGGSLRLSCAASRSISPMGWYRQAPGKQRELVAIMPSSGPPIYADSVQGRFTISRDNAKNTVYLQMNSLKPEDTAVYYCNVGGGYWGQGTQVTVSS | – | did not compete with 13F11 | less than 5% | –
13A12: VHH single domain antibody targeting IGF2R, SEQ ID NO: 289 (protein) VHH: EVQLVESGGGLVQAGGSLRLSCAASGIIFGANTVGWYRQVPGKERDVVASITSGDSTYYGDSVRGRFTISRDNAKNTMYLQMNSLKPEDTAIYYCRARTTDGSYWGQGTQVTVS | – | competed with 13F11 | substantially more decrease in fluorescence intensity | –
SP12P: VHH single domain antibody targeting PDGFRB, SEQ ID NO: 65 (protein) VHH: EVQLVESGGGLVQAGGSLRLSCVISGRTSPTYPMGWFRQSPGNEREFVASINWSGGWRNYADSVKGRFTISRDDAKNTVYLQMNSLKPEDTAVYYCARGQYSSGTPVYAHEYAYWGQGTQVTVSS | third | – | – | –
SP20P: VHH single domain antibody targeting PDGFRB, SEQ ID NO: 113 (protein) VHH: EVQLVESGGGLVQAGGSLRLSCVISGRTSPTYPMGWFRQSPGNEREFVASINWSGGWRNYADSVKDRFTISRDDAKNTVYLQMNSLKPEDTAVYYCARGQYSSGTPVYAHEYAYWGQGTQVTVSS | third | – | – | –
SP13P: VHH single domain antibody targeting PDGFRB, SEQ ID NO: 73 (protein) VHH: EVQLVESGGGLVQPGGSLRLSCAASESIFSINYMAWYRQAPGKQRELVAFSIDGSSTNYVDSVRGRFTASRDNAENTLYLQMNSLKPEDTAVYYCYAQGNTWAAGVWGQGTQVTVSS | first | – | – | –
SP05P: VHH single domain antibody targeting PDGFRB, SEQ ID NO: 25 (protein) VHH: EVQLVESGGGLVQAGGSLRLSCAASGRTSFSGYAMAWFRQAPGKERDFVASITWSYGYTYYTDSAQGRFTISRDSAKNTVYLEMNSLKPEDTAVYYCAADPKASRFRILREYAYWGQGTQVTVSS | second | – | – | –

Reference: patent US20240325562A1, “INTERNALIZING BINDING MOLECULES” (LinXis B.V., priority 2020, published 2024)
